Drawing on PMC3253312 (Steroids, 2011), this text covers Km and Vmax for 4 proteins.

Substrate in this series: C[C@]12CCC(=O)C=C1CC[C@@H]1[C@@H]2CC[C@]2(C)C(=O)CC[C@@H]12
The experiment in a line: cells, lysate or membranes. Conditions: substrate.

Positions count from the first letter of the chain named. Numbers in names are those of the source.

B1: wild-type aromatase (Homo sapiens) (protein)
chain: MVLEMLNPIHYNITSIVPEAMPAATMPVLLLTGLFLLVWNYEGTSSIPGPGYCMGIGPLISHGRFLWMGIGSACNYYNRVYGEFMRVWISGEETLIISKSSSMFHIMKHNHYSSRFGSKLGLQCIGMHEKGIIFNNNPELWKTTRPFFMKALSGPGLVRMVTVCAESLKTHLDRLEEVTNESGYVDVLTLLRRVMLDTSNTLFLRIPLDESAIVVKIQGYFDAWQALLIKPDIFFKISWLYKKYEKSVKDLKDAIEVLIAEKRRRISTEEKLEECMDFATELILAEKRGDLTRENVNQCILEMLIAAPDTMSVSLFFMLFLIAKHPNVEEAIIKEIQTVIGERDIKIDDIQKLKVMENFIYESMRYQPVVDLVMRKALEDDVIDGYPVKKGTNIILNIGRMHRLEFFPKPNEFTLENFAKNVPYRYFQPFGFGPRGCAGKYIAMVMMKAILVTLLRRFHVKTLQGQCVESIQKIHDLSLHPDETKNMLEMIFTPRNSDRCLEH
Consider B1, for which, under “other: WT aromatase”, the Km was 0.0273 ± 0.0025 µM and the Vmax amounted to 5.32e-07 µmol/min/mg.

B2: aromatase W224F mutant (Homo sapiens; W224F) (protein)
chain: B1 chain with W224F
On to B2, for which, under “other: W224F mutant”, the Km was determined as 0.067 ± 0.0051 µM and the maximal velocity (Vmax) worked out at 1.18e-07 µmol/min/mg.

B3: aromatase M374T mutant (Homo sapiens; M374T) (protein)
chain: B1 chain with M374T
Turning to B3, where the note is “other: M374T mutant”, the Km was found to be 0.0178 ± 0.002 µM and the Vmax was determined as 4.5e-08 µmol/min/mg.

B4: aromatase F221Y mutant (Homo sapiens; F221Y) (protein)
chain: B1 chain with F221Y
Turning to B4, under “other: F221Y mutant”, the Km was 0.0029 ± 0.0003 µM and the Vmax stood at 1.22e-07 µmol/min/mg.
